Fewer inactive variants are shown than the library holds.
B1: TPR 5TU (parent)
chain: GGAUCUUCUCGAUCUAACAAAAAAGACAAAUCUGCCACAAAGCUUGAGAGCAUCUUCGGAUGCAGAGGCGGCAGCCUUCGGUGGCGCGAUAGCGCCAACGUUCUCAACUAUGACACGCAAAACGCGUGCUCCGUUGAAUGGAGUUUAUCAUG

Variants of: B1
Test: polymerase ribozyme fitness, log enrichment relative to wild type (log ratio); higher = more active; in vitro selection for triplet polymerase activity
In short: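 Fitness is a logarithmic measure of how a genotype enriched relative to the wild type, with replicate averages weighted by inverse variance. The logarithm uses base 2, and enrichment came from Illumina sequencing of input and output libraries. Those libraries were PCR-built, transcribed mutants of each subunit of a heterodimeric triplet polymerase ribozyme, passed through one triplicate in vitro selection round that included frozen incubation at −7 °C, gel excision of extended constructs and streptavidin-bead capture. Genotypes were kept only if they had ≥10 input reads and ≥1 read per output.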

Row | Variant | polymerase ribozyme fitness (log ratio)
1 | A12U A24C G46A A52G G141U A147G | ≤ -4.2
2 | C14G A66U C69A | ≤ -4.2
3 | C14A C69G C75A G92U G140U | ≤ -4.2
4 | U13C A19U U55A G83A U111G | ≤ -4.2
5 | U13A U45A U56A G74A | ≤ -4.2
6 | C14U A24U U55A G70C G94A C116G | ≤ -4.2
7 | A12U A23U U45C A97G A98U C131G C132U | -4.12
8 | C14G A30C G50A C76U C87A A107G U111C A120U | ≤ -4.2
9 | C14G G88U U102A | ≤ -4.2
10 | A12U C51G G88C C108G G117C | ≤ -4.2
11 | C14A A37G C93U | -4.13
12 | U13G C79A C103U | ≤ -4.2
13 | C14U A41U A60C A66U G80A C85U C103U | ≤ -4.2
14 | A12U C14A G42A C96G U111G A122U | ≤ -4.2
15 | A12U A39G C95U | -2.3
16 | C14A A17U A21G C54U A60G | -3.75
17 | C14A U61G U111A A121C | ≤ -4.2
18 | C14A G34A A40C U55G C87G C114G G117U A121C U139A | ≤ -4.2
19 | U13C A26U A52C U55A G88A A89C C99U U135G A142U | ≤ -4.2
20 | A12U C18G C32A G84A C105U U127G | ≤ -4.2
21 | U13C G58A | 0.452
22 | U13G U44A G124C U144G | ≤ -4.2
23 | C14G G141A | -1.87
24 | A12U U31G A60G G83C | -1.56

Row | Variant | polymerase ribozyme fitness (log ratio)
25 | C14G G42U G46C G92C A119U G128A | ≤ -4.2
26 | C14U A21G C38G C57A C79U A138C U148C | ≤ -4.2
27 | C14A A37U G50U G94U A106U | ≤ -4.2
28 | U13C A49C C93A | ≤ -4.2
29 | A12U C96U | -0.566
30 | C14A U15A G50U A66G U101G C114U C118G G133A A137G | ≤ -4.2
31 | C14A G58U | -1.88
32 | C14A G58C | -1.28
33 | A12U C36G G92C A147G | ≤ -4.2
34 | A12U G58A C85G A106G A137U A150C | ≤ -4.2
35 | C14U A40C C54U C63A C95U A106C | ≤ -4.2
36 | U13G A24U A28U A29U C54U C69A C76G G94U A97C U135C | ≤ -4.2
37 | C14A C76G C87A A119G A138C U148A | ≤ -4.2
38 | C14G A20C A40C A89C | -4.13
39 | C14G U139G U144G | -1.38
40 | U13G C69A | ≤ -4.2
41 | U13G C87G | ≤ -4.2
42 | C14G C38A A52C C57A G62A G83A A89C C96G A110C | -3.85
43 | C14A A73G G86A A98U | -3.58
44 | C14G A19G C54U C76G U82G A119G G128C U134C | ≤ -4.2
45 | U13G G84U | -3.13
46 | A12U C35G C36G U55G G86U | ≤ -4.2
47 | C14U A60U C96G | ≤ -4.2
48 | C14G C75A G84U | -4.14

Row | Variant | polymerase ribozyme fitness (log ratio)
49 | C14G G94A | -2.61
50 | C14G G94C | -2.23
51 | A12U G25C C35U U77G G94U | ≤ -4.2
52 | U13A A23G C27U A28C C54U C85U C93U A115C C116G A121G A150C | -3.82
53 | C14G A39G A49U U56A G81U | ≤ -4.2
54 | C14G | -2.09
55 | C14U | -1.06
56 | C14A | -1.08
57 | C14G G25C | ≤ -4.2
58 | A12U U15A A21U U55A C76U C79A A121U | ≤ -4.2
59 | A12U G59U G94C C114U | -2.68
60 | A12U G58U A60U G86C A107U G133U C149G | ≤ -4.2
61 | U13C A20C G83U C85A C93A | ≤ -4.2
62 | U13G A21U C96U G133C A147C | -4.05
63 | A12U C27U C38U G59U C63A C93A | -4.12
64 | C14G A23U C54G G67U A142U U151A | ≤ -4.2
65 | U13G G25A G83A | -4.07
66 | C14A A17G U31A G59A C75G C95U U101G A113U A121U | ≤ -4.2
67 | A12U U111C | -4
68 | U13C U61C C85U A89C U144A | ≤ -4.2
69 | C14G C27A A37U C54U G67A G94U C105G | ≤ -4.2
70 | A12U A40C G92A C118G | -3.87
71 | C14G C36U U55G G68U C93G U134A | ≤ -4.2
72 | C14G A60U G86U | ≤ -4.2

Row | Variant | polymerase ribozyme fitness (log ratio)
73 | C14U A21U G50C U56A A66C A91U G143C | ≤ -4.2
74 | C14A A39G G42A U82C G88C | ≤ -4.2
75 | A12U U15G U56A G71C G84A G117U A120U A147U | -3.53
76 | U13A A22U A41C U53G | -2.31
77 | U13G C36U A52G U55G C69U C76G G83C C114U C149A | ≤ -4.2
78 | C14G C85U C103U | -3.1
79 | A12U C87U A120U | -0.814
80 | A12U A91U A120G U146A | -4.18
81 | U13G A28U G71A G88C | ≤ -4.2
82 | C14A A19C G58U A89U | -2.28
83 | U13G G86U | -3.56
84 | C14A G50A C85G C96A | ≤ -4.2
85 | U13C U31G C32G C76U C131G | ≤ -4.2
86 | C14A C87A A97U G143A | ≤ -4.2
87 | U13C A66U G88A A91U | ≤ -4.2
88 | C14G A28U G50A A119C A147U | ≤ -4.2
89 | U13C A20C A21C G58A U82A U101A | -1.36
90 | A12U C14U A17U G59A C93U A122U G143C | ≤ -4.2
91 | C14G A39C C54G G71U C79G | ≤ -4.2
92 | A12U C87U | -1.1
93 | U13G G83C U145C | -3.39
94 | U13G A21U A22C U82G G92U A98C C116U G136A | -4.02
95 | U13C C57A G58A A66G U82G C116U | ≤ -4.2
96 | U13G C93G | -3.88

Row | Variant | polymerase ribozyme fitness (log ratio)
97 | C14G A107G G136U | ≤ -4.2
98 | U13G C14U A16G G59A U90G | -4.01
99 | U13G A21U C57U G68A A73U G92C C103A | ≤ -4.2
100 | A12U C18U A47G C85A C93A A98C A121U | ≤ -4.2
101 | A12U A23U A40U C87A G88C G117U | ≤ -4.2
102 | U13A A22U A89G C95A | -1.67
103 | U13G A24U A37G U134C | -4.14
104 | C14G A52G G141C | -3.34
105 | U13A A17G A49C A107G | ≤ -4.2
106 | U13A U15C A26C C93A | -3.05
107 | C14G C54G G68C C85U C105A C114A A137U | ≤ -4.2
108 | C14A C116G | -0.826
109 | C14U A21C G67U U77A C85G C96U U127G | ≤ -4.2
110 | U13G A137U | ≤ -4.2
111 | C14G U31A A40U U90G G92A A107G G112A G133U G141A | ≤ -4.2
112 | C14G A24C C35U C57A G84U A97U | ≤ -4.2
113 | U13C G50U G86C A89U C96A C116A | ≤ -4.2
114 | A12U C14G A29C C32U U45A G80C | ≤ -4.2
115 | C14A G68U C76A C99U G100A | ≤ -4.2
116 | U13C G25C C76A A97U C103G C105G U139C | ≤ -4.2
117 | A12U G50A U53A C87U G136A | ≤ -4.2
118 | A12U A47C A52C U56G A64C G86A A89G C99U | ≤ -4.2
119 | C14U A21G A24C A28U U53C C75U | ≤ -4.2
120 | U13A A21C U56A A60G G92U U102A C114U C123U | -3.84

Row | Variant | polymerase ribozyme fitness (log ratio)
121 | C14U A20C A39G A52G U56A C96A A121U | -4
122 | U13G C76A | -2.11
123 | C14G U61A | -3.55
124 | C14G U61G | -3.62
125 | C14G U55A G92U | -2.92
126 | C14A G48A A91U G100A U101C U134A | ≤ -4.2
127 | A12U C32G G100A C129A U144G | ≤ -4.2
128 | U13G C14G A20U A37G A47C A49U C99U C149U | ≤ -4.2
129 | U13G G46A G83A U101A U134A U135C | ≤ -4.2
130 | C14U A30U U53G G58U G65C G74A | ≤ -4.2
131 | A12U C43U C63U U90C C105G G140A | ≤ -4.2
132 | C14G U55A G84A G141A | -3.7
133 | C14G G48A A119G | -3.43
134 | A12U C93U A97U C103U C105U G133U | ≤ -4.2
135 | C14G G83A G117U U127G | ≤ -4.2
136 | A12U A39U U53G G126U | -4.09
137 | C14A A20U A21U U102G | ≤ -4.2
138 | A12U U56C G59A G88C | ≤ -4.2
139 | C14A A21C A22C | -0.829
140 | A12U A24U C43A G46A U53A U55A C57U A60G G80U C93G | ≤ -4.2
141 | U13C C54G C95G | -3.76
142 | A12U C118U A119C G136A G143C | -3.19
143 | A12U A89U G94U C108G C118U A120C A122C A137C | ≤ -4.2
144 | C14A G46C C75G C87A A89U U90G C96U U102G G140A | ≤ -4.2

Row | Variant | polymerase ribozyme fitness (log ratio)
145 | C14G C18U A22C A40C U53A C75A U77A G94C G117U A119G C149G | ≤ -4.2
146 | U13A A98U U148G | ≤ -4.2
147 | C14G A20U | -2.37
148 | U13G U78G G86U G140A G141A | ≤ -4.2
149 | C14G G83C G117U | -2.76
150 | C14G A24G U31A A49C A52C C54A U56A A73U A89G C99G A107C C149G | ≤ -4.2
151 | U13A U53A C63G A97U U102G A142C | ≤ -4.2
152 | A12U U55A G141A | -1.32
153 | U13C C54U C103U | -1.54
154 | C14U A23C U101C U102A U151G | ≤ -4.2
155 | C14G C38U C95G A106C | -4.14
156 | C14U A22U A41U A120C | -3.1
157 | C14G A37U G86U A89U A119U C132G | ≤ -4.2
158 | C14G U82A U101G | -2.29
159 | C14G A20C G50U U53A G126U U139A | ≤ -4.2
160 | C14G C35U G42C A52U C75A C79G G92C C118U G140C | -4.09
161 | C14A G94A | -1.67
162 | C14A U55A C75U A120U | -2.39
163 | C14U A19G G94A A106G C131G | ≤ -4.2
164 | C14A A41C G94C | -2.95
165 | C14G U56A A73G U135C | -4.12
166 | A12U A21U C87G C99U C125U | ≤ -4.2
167 | C14G U15A G68C G83A U111C | ≤ -4.2

Reference: the RNAGym collection of RNA variant scans (doi:10.1073/pnas.2313332121)
